Ends that are not written are not given here. * marks the point of attachment. FITC = O=C1OC2(c3ccc(O)cc3Oc3cc(O)ccc32)c2ccc(NC(=S)*)cc21
Biological target: T1, Human chorionic gonadotropin (human, UniProt P01215 25-116; P0DN86 21-165)
T1 construct: glycoprotein hormones alpha chain of human chorionic gonadotropin; beta subunit of human chorionic gonadotropin; Glycoprotein hormone; also called hCG; source: bought: Sigma-Aldrich
Assay: other fluorescence titration; 50 nM FITC-peptide first adsorbed on graphene oxide (2 ug/mL, 10 min, fluorescence quenched); protein added, 15 min at room temperature, PBS 20 mM pH 7.2; recovery of fluorescence (excitation 470 nm, emission 518 nm) on release of the peptide from GO
Conditions: both partners purified

T1 sequence (P01215 25-116, chain 1 of 2, other chains not shown): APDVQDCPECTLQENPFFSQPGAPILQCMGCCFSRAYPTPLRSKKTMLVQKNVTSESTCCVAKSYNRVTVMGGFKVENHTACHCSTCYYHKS

binding result: binds
B1: FITC-labeled hCG-specific binding peptide aptamer FITC-PPLRINRHILTR (peptide)
peptide: {FITC}-PPLRINRHILTR
notes: In the assay the peptide was first adsorbed onto graphene oxide (GO); also called peptide probe; source: synthetic peptide; bought: Synpeptide Co., Ltd

Source: publication PMC5087487, “A Graphene Oxide-Based Fluorescent Method for the Detection of Human Chorionic Gonadotropin” (Sensors (Basel, Switzerland), 2016)
